# B1: ch_TAG_TNB1-saporin (antibody, V domains shown)
# VH: QVKLQESGAELVKPGASVKLSCKASGFTFTSYYMYWVKQRPGQGLEWIGGVSPSNGGANFNEKFKTKATLTVDKSSSTAYMQLSSLTSEDSAVYYCTRFLYGPRYFDVWGQGTTVTVSS
# VL: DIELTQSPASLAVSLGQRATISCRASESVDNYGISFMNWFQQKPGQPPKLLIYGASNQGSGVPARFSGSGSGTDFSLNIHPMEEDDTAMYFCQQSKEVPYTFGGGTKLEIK
# modifications: Saporin toxin directly conjugated to the antibody; site and chain not stated
# Target: T1, AXL receptor tyrosine kinase (Homo sapiens, UniProt P30530 26-894, O-linked glycan (site not stated) reported as the TAG_TNB1 epitope)
# T1 sequence (looked up): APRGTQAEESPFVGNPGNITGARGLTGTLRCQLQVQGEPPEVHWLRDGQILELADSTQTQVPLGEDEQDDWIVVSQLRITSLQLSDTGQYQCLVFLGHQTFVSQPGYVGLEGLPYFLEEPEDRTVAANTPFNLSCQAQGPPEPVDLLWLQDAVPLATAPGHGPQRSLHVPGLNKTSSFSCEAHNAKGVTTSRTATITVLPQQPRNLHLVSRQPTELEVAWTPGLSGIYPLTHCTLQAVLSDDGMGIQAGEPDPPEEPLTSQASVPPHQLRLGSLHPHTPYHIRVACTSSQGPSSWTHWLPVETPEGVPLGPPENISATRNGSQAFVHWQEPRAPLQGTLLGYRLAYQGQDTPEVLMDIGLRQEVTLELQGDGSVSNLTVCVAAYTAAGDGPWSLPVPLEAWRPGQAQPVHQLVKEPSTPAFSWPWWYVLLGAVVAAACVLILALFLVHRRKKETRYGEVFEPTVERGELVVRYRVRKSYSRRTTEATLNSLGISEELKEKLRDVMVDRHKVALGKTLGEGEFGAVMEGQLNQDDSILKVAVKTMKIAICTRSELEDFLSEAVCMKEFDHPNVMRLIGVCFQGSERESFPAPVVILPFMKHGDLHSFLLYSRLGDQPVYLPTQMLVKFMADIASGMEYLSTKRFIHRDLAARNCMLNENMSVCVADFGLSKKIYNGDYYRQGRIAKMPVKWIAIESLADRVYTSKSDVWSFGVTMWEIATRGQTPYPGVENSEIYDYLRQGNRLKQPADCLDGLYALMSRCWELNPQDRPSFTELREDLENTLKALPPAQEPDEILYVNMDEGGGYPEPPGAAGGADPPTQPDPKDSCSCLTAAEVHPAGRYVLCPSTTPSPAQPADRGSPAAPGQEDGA
# Test: cell-based or functional assay
binder,measurement,value
B1,"IC50, Cell Titre Glo cell viability, BT549 cells",1240 pM
same,"IC50, Cell Titre Glo cell viability, H1299 cells",35.3 pM
same,"IC50, Cell Titre Glo cell viability, Hs578T cells",529 pM
same,"IC50, Cell Titre Glo cell viability, MDA-MB-231 cells",340 pM
